Results taken from patent publication US7662404B2, “Transdermal delivery system for dried particulate or lyophilized peptides and polypeptides” (TransPharma Medical Ltd., priority 2002, dated 2010).
Read-outs that look alike come from different tables or passages of the source. Values belong to the compound of their own block, whether it stands above or below them.

Key:
blood glucose = assay: Bioactivity of insulin in diabetic rats: blood glucose after printed patches or SC (Example 6); assay type: in vivo
Method: (§1) ViaDerm apparatus was used. The density of the microelectrode array used in these studies was 100 microelectrodes/cm^2. The device was applied twice on each location, so the density of the micro channels was 200/cm^2. The skin was treated with an applied voltage of 330V, frequency of 100 kHz, two bursts, 700 microsecond burst length, and no current limitation.
Male rats (300-325, Sprague Dawley, Harlan laboratories Ltd., Israel) were deprived of food and received water as libitum 48 hr prior to patch applications. Streptozotocin (55 mg/kg in citric buffer, 0.1 M, pH 4.5) was injected intraperitonally (IP) to the rats 24 hr prior to patch applications in order to induce diabetes. […] The diabetic rats were premedicated with IP injections of 10% ketamin/2% xylazine solution at a ratio of 70:30, 1 ml/kg. Anesthesia was maintained with either isofluorane or halothane gas. The abdominal skin hair was shaved carefully, and was cleaned with isopropyl alcohol. After 30 min, transepidermal water loss measurements (TEWL, Dermalab Cortex Technology, Hadsund, Denmark) were performed to check skin integrity. Skin micro-channeling was performed by the use of the ViaDerm instrument with the conditions described above. TEWL was then measured again to control the operation. The treated skin was covered with Lispro (HUMALOG®) or Regular (HUMULIN®R) 1.5 IU insulin-printed patches. SC injections of 0.4 IU served as a positive control. Blood samples were withdrawn from the tip of the rat's tail at 0, 2, 4, and 6 hr post application, and glucose level was determined.

plasma Ca++ = assay: In vivo bioactivity of sCT: plasma Ca++ concentrations in pigs (Example 10)
Method: In vivo bioactivity of sCT was evaluated by measuring plasma Ca^++ concentrations. […] Transdermal administration from the printed patches yielded a ˜20% decrease in Ca^++ concentrations, regardless of sCT dose. Thus, sCT delivered transdermally remained intact and biologically active.

[1] = Plasma sCT after SC injection or printed patch with ViaDerm in pigs (Example 10); assay type: in vivo; settings: for bioavailability: compared to SC
Method: Pigs (males, 10-12 kg, Large white) were treated as follows:
Group 1: 1 ml of salmon calcitonin containing 16.7 μg peptide (Miacalcin, Novartis Pharma Ag, Basle, Switzerland) was injected subcutaneously (S.C) to each pig (total 3 pigs).
Group 2: Each pig underwent 2 ViaDerm applications on one site on the back (150 micro-channels per cm^2). Patches of 400 μg sCT/patch of 1.4 cm^2 were placed on the treated area (total 3 pigs).
Group 3: Each pig underwent 2 ViaDerm applications on one site on the back (150 micro-channels per cm^2). Patches of 200 μg sCT/patch of 1.4 cm^2 were placed on the treated area (total 3 pigs).
In order to determine sCT concentrations in pig plasma an ELISA assay was performed (Diagnostic Systems Laboratories, Inc. Webster, Tex., USA).

IGF-1 = IGF-1 in the serum of hypophysectomized rats after rhGH (Example 3); assay type: in vivo
Excerpt: GH is produced by the pituitary gland (hypophysis) and acts in several ways and on several targets. A distinctive role attributed to GH is the induction of IGF-1 production by liver cells (hepatocytes). As GH is the main trigger for the production of IGF-1, the activity of GH can be detected by measuring IGF-1 levels in the blood. GH levels in the blood can be directly analyzed as well.
Results 1. rhGH in the Serum

[2] = rat, in vivo
Excerpt: • Animals: Rats, males, 250 gr, Sprague Dawley, hypophysectomized at Harlan USA labs. […] This fraction was spread on a hypoallergenic clear medical tape (Kendall Curity®, Emergency Medical Products Inc., USA) in doses specified below, and placed directly onto the skin as a transdermal patch. […]
The transdermal groups (1 and 2) received a treatment including: Shaving, drying, baseline Trans Epidermal Water Loss measurement (TEWL; DERMALAB® Cortex Technology, Hadsund, Denmark), two ViaDerm applications of 200 micropores/cm^2 (placebo for Group 2), second TEWL measurement and patch application. At the end of the study all animals were sacrificed by an IV overdose of sodium-pentobarbital (140 mg/kg). • ViaDerm parameters: burst length—500 μsec, starting amplitude—250 V, number of bursts—5 and applications per site—2 (200 micropores/cm^2). • Blood sampling: Blood samples (0.5 ml/rat) were withdrawn at 6 time points, t=0, 2, 4, 6, 12 and 24 hours, from the tail end of anesthetized rats (20 mg/rat ketamine, intramuscular). • Serum analysis: rhGH in the serum was detected using an Elisa kit (DSL-10-1900; Diagnostic Systems Laboratories, TX, USA) specific for rhGH. […] IGF-1 was detected according to RIA protocol (Endocrine, Vol. 16, no. 1, 1-6, October 2001). […]

[3] = Bioavailability of rhGH printed patches with ViaDerm in guinea pigs (Example 5); assay type: in vivo
Method: as §1, with “ViaDerm micro-channeling” for “ViaDerm”
(§2) Male Guinea pigs (500-800 grams, Dunkin Hartley, Harlan laboratories Ltd., Israel) and Male rats (350-400, Sprague Dawley, Harlan laboratories Ltd., Israel), were premedicated with IP injections of 10% ketamin/2% xylazine solution at a ratio of 70:30, 1 ml/kg. Anesthesia was maintained with either isofluorane or halothane gas. The abdominal skin hair was shaved carefully, and was cleaned with isopropyl alcohol. After 30 min, transepidermal water loss, measurements (TEWL, Dermalab Cortex Technology, Hadsund, Denmark) were performed to check skin integrity. Skin micro channeling was performed by the use of the ViaDerm instrument with the conditions described above. TEWL was then measured again to control the operation. The treated skin was covered with the rhGH patches and blood samples were withdrawn from a preinserted carotid cannula in guinea pig or from the rat's tail at predetermined times post application. The serum was separated by centrifugation and analyzed for rhGH by Elisa kit (DSL-10-1900, Diagnostic Systems Laboratories, Inc. Webster, Tex., USA). The transdermal delivery of rhGH was compared to that of subcutaneous hGH delivery.

[4] = rhGH in serum after printed patches and ViaDerm, hypophysectomized rats (Example 4); assay type: in vivo
Method: The materials and methods applied in this example were similar to those in EXAMPLE 3 except from the following points: • a) The animals were treated with ELTROXIN™ and hydrocortisone only until 10 days before initiating the treatments. • b) The test article was a printed patch of rhGH in two doses: 0.15 mg/patch and 0.5 mg/patch. The patches were composed of a backing liner (DOW BLF2080™, The Dow Chemical Company, MI, USA) on which drops of GENOTROPIN® were evenly placed. All the patches contained 144 drops over an area 1.4×1.4 cm^2. The printed patch was attached to the skin by a fixing patch, 2 cm×2 cm with 300 μm thick (wet) glue (DURO-TAK™ 3872516; National Starch & Chemical Pty Ltd, NSW, Australia) on the backing liner. • c) The experimental setup included 2 groups of 3 rats each: • Group 1: Treated with ViaDerm+one 0.15 mg printed patch. • Group 2: Treated with ViaDerm+one 0.5 mg printed patch. Results 1. Printed Patches

[5] = Bioavailability of rhGH printed patches with ViaDerm in normal rats (Example 5); assay type: in vivo
Method: as §1, with “ViaDerm micro-channeling” for “ViaDerm”
as §2

[6] = diabetic rats, 1.5 IU insulin-printed patch on ViaDerm treated skin
[7] = diabetic rats, 1.5 IU insulin-printed patch on ViaDerm treated skin, from about 400 mg/dl
[8] = hyperglycemic rats, transdermal
[9] = Group 1: ViaDerm + ~0.8 mg rhGH powder patch
[10] = Group 3: SC injection 150 μg/rat
[11] = Transdermal printed patch, dose 50 (mg)
[12] = Transdermal printed patch, dose 150 (mg)
[13] = Transdermal printed patch, dose 300 (mg)
[14] = Transdermal printed patch, dose 400 (mg)
[15] = Group 1: ViaDerm + 0.15 mg printed patch
[16] = Group 2: ViaDerm + 0.5 mg printed patch
[17] = Transdermal printed patch, dose 75 μg
[18] = Transdermal printed patch, dose 150 μg
[19] = Transdermal printed patch, dose 300 μg
[20] = Transdermal printed patch, dose 450 μg

Compound: HUMALOG®: human recombinant insulin Lispro, 100 IU/ml (Lilly), used in 1.5 IU printed patches
blood glucose level after 6 hr (blood glucose; [6]): about 30 mg/dl
blood glucose level three hours following application (blood glucose; [7]): about 70 mg/dl

Compound: insulin: insulin given as SC injection of 0.4 IU, positive control; product not specified
blood glucose level after 6 hr (blood glucose; diabetic rats, SC injection 0.4 IU): about 200 mg/dl
blood glucose level three hours following administration (blood glucose; diabetic rats, SC injection 0.4 IU, from about 400 mg/dl): about 70 mg/dl
period of normal glucose level (blood glucose; [8]): 4 to 6 h
time to normal glucose level (100 mg/dl to 200 mg/dl glucose) (blood glucose; [8]): 1 to 3 h

Amount delivered ([1]; Printed patch 400 μg): 31.92 µg
bioavailability ([1]; Printed patch 400 μg): 7.98%
AUC ([1]; S.C. 16.7 μg, neck): 206.377 ± 63.647 pg·min/mL
Cmax ([1]; male, Large white, pig, plasma, other: transdermal printed patch on ViaDerm-treated skin, 200 ug, patch 200 μg, ViaDerm, back): 2.33 ± 0.673 ng/mL
bioavailability ([1]; male, Large white, pig, plasma, other: transdermal printed patch on ViaDerm-treated skin, 200 ug, patch 200 μg, read-out: bioavailability): 10%
Cmax ([1]; male, Large white, pig, plasma, other: transdermal printed patch on ViaDerm-treated skin, 400 ug, Printed patch 400 μg, ViaDerm, back): 2.82 ± 1.74 ng/mL
bioavailability ([1]; male, Large white, pig, plasma, other: transdermal printed patch on ViaDerm-treated skin, 400 ug, Printed patch 400 μg, read-out: bioavailability): 8%
Cmax ([1]; male, Large white, pig, plasma, sc, 16.7 ug, S.C. 16.7 μg, neck): 2.21 ± 1.12 ng/mL
Amount delivered ([1]; patch 200 μg): 20.12 µg
bioavailability ([1]; patch 200 μg): 10.06%
Compound: CC(C)C[C@H](NC(=O)[C@H](CCCCN)NC(=O)CNC(=O)[C@H](CC(C)C)NC(=O)[C@@H](NC(=O)[C@@H]1CSSC[C@H](N)C(=O)N[C@@H](CO)C(=O)N[C@@H](CC(N)=O)C(=O)N[C@@H](CC(C)C)C(=O)N[C@@H](CO)C(=O)N[C@@H]([C@@H](C)O)C(=O)N1)C(C)C)C(=O)N[C@@H](CO)C(=O)N[C@@H](CCC(N)=O)C(=O)N[C@@H](CCC(=O)O)C(=O)N[C@@H](CC(C)C)C(=O)N[C@@H](Cc1c[nH]cn1)C(=O)N[C@@H](CCCCN)C(=O)N[C@@H](CC(C)C)C(=O)N[C@@H](CCC(N)=O)C(=O)N[C@H](C(=O)N[C@@H](Cc1ccc(O)cc1)C(=O)N1CCC[C@H]1C(=O)N[C@@H](CCCNC(=N)N)C(=O)N[C@H](C(=O)N[C@@H](CC(N)=O)C(=O)N[C@H](C(=O)NCC(=O)N[C@@H](CO)C(=O)NCC(=O)N[C@H](C(=O)N1CCC[C@H]1C(N)=O)[C@@H](C)O)[C@@H](C)O)[C@@H](C)O)[C@@H](C)O [sCT]
decrease of plasma Ca++ concentrations from time 0 (plasma Ca++; SC administration 16.7 μg): ~25%
decrease in plasma Ca++ concentrations (plasma Ca++; transdermal from printed patches, regardless of sCT dose (200 or 400 μg)): ~20%

Compound: rhGH: recombinant human growth hormone, 22 kDa polypeptide; GENOTROPIN (Pharmacia & Upjohn) with mannitol
IGF-1 in the serum (IGF-1; [9]): elevation of IGF-1
time of maximal average IGF-1 concentration (IGF-1; [9]): 12 h
IGF-1 in the serum (IGF-1; Group 2: rhGH patch on intact skin): low level of IGF-1
IGF-1 in the serum (IGF-1; [10]): anticipated elevation of IGF-1
time of peak IGF-1 concentration (IGF-1; [10]): 12 h
bioavailability compared to the SC group [2]: 33.8%
AUC normalized for 0.1 mg rhGH ([2]; sc): 1128 µg·h/mL
Bioavailability (% of SC) ([3]; SC, dose 50 (mg printed; reference)): 100 % of SC
AUC ([3]; SC, dose 50 (mg)): 176 ng·h/mL
AUC [3, 11]: 57 ng·h/mL
Bioavailability (% of SC) [3, 11]: 32.4 % of SC
AUC [3, 12]: 175 ng·h/mL
Bioavailability (% of SC) [3, 12]: 33.1 % of SC
AUC [3, 13]: 362 ng·h/mL
Bioavailability (% of SC) [3, 13]: 34.3 % of SC
AUC [3, 14]: 404 ng·h/mL
Bioavailability (% of SC) [3, 14]: 28.7 % of SC
AUC absolute value [4, 15]: 1594 ng·h/mL
time of peak rhGH serum level [4, 15]: 4 h
AUC absolute value [4, 16]: 6563 ng·h/mL
time of peak rhGH serum level [4, 16]: 6 h
AUC ([5]; SC, dose 150 μg): 489 ng·h/mL
Bioavailability (% of SC) ([5]; SC, dose 150 μg (reference)): 100 % of SC
AUC [5, 17]: 184 ng·h/mL
Bioavailability (% of SC) [5, 17]: 75.3 % of SC
AUC [5, 18]: 376 ng·h/mL
Bioavailability (% of SC) [5, 18]: 76.9 % of SC
AUC [5, 19]: 727 ng·h/mL
Bioavailability (% of SC) [5, 19]: 74.3 % of SC
AUC [5, 20]: 884 ng·h/mL
Bioavailability (% of SC) [5, 20]: 60.3 % of SC

Compound: HUMULIN®: human recombinant insulin, regular, 100 IU/ml (Lilly), used in 1.5 IU printed patches
blood glucose level after 6 hr (blood glucose; [6]): about 30 mg/dl
blood glucose level three hours following application (blood glucose; [7]): about 70 mg/dl
